Measurements reported in US20150148405A1, “Expression Construct for a Lin28-Resistant Let-7 Precursor MicroRNA” (THE JOHNS HOPKINS UNIVERSITY, priority 2012, published 2015).

How the values were obtained:
Assay type in all cases: cell-based, mouse
Lin28a = assay: Immunoblotting for Lin28a; details: mature neurons, by 5 min following BDNF exposure
Description: (§1) Primary cultures of mouse hippocampal neurons (DIV 14 15) were incubated in serum-reduced medium (0.5% B27 supplement) for 2 hours, followed by […] Actinomycin-D for 10-20 min. Bath application of BDNF (100 ng/mL) was for designated periods (5 min-2 hours). The cultures were washed 3 times and harvested on ice with lysis buffer (50 mM Hepes, 150 mM NaCl, 10% Glycerol, 1 mM EDTA, 1% Triton-X-100, 0.2% SDS) plus freshly added protease inhibitor cocktail (Roche) and PMSF. Protein concentration was determined by Bradford Assay. If required, lysates were treated with Lambda Protein Phosphatase according to manufacturer's instructions (New England Biolabs […]). Equal amounts of lysate protein were resolved on SDS-PAGE gels, and electrotransferred to PVDF membrane. […]

phospho-ERK = assay: Immunoblotting for phospho-ERK; details: BDNF-stimulated neurons, Actinomycin-D
Description: as §1

TRBP = assay: Immunoblotting for TRBP; details: 5 min after BDNF; +/-0.86
Description: as §1

[1] = tested on: hippocampal pyramidal neurons; assay: Live cell imaging of P-body numbers (GFP-Dcp1a); details: BDNF-stimulated vs mock, GFP-Dcp1a live imaging, in presence of Actinomycin-D
Description: Dissociated hippocampal cultures were prepared from postnatal day 0 (P0) mice as previously described (Meffert et al., 2003). Knockdown was by lentiviral-mediated delivery of shRNA to cultures at multiplicity of infection of 5-10, 48 hr before imaging or 4-5 days for GW182. Cultures were preincubated 10-20 min and mock- or BDNF-stimulated (100 ng/mL BDNF) in the presence of Actinomycin-D (0.5 μg/mL), unless indicated otherwise.
Confocal images of hippocampal pyramidal neurons were acquired on either a Yokogawa spinning disk (Zeiss) at 37° C. (live cells), or a LSM5 Pascal system (fixed cells). Laser power and exposure time were adjusted to minimize photobleaching and avoid saturation. […]
Dissociated hippocampal cultures were prepared from postnatal day 0 (P0) mice as previously described (Meffert et al., 2003) and were maintained in Neurobasal A medium (Gibco, 10888) with B27 Supplement (Gibco 17504-44). […] For live cell imaging, confocal images of hippocampal pyramidal neurons (excitatory, determined by morphology) in 0.24-0.3 μm Z sections were acquired using a 40×, 1.3 NA, EC Plan Neofluoar (whole cells) or a 100×, 1.4 NA Plan Apochromat oil immersion objective (dendrites) on a Yokogawa spinning disk system (Cell Observer, Carl Zeiss) at 37° C. in Tyrodes buffer (in mM: 119 NaCl, 5 KCl, 2 CaCl2, 0.2 MgCl2, Glucose, 25 Hepes, 0.01 Glycine, pH 7.4). […]

Let-7a = assay: Northern blot of pre- and mature Let-7a; details: BDNF-treated (30 min) neurons
Description: Northern blots were carried out as described (Hwang et al., 2007), using the following LNA probes from Exiqon: Let-7a (5′ […] 3′; SEQ ID NO: 1), pre-Let-7a (5′ GTGGGTGTGACCCTA 3′; SEQ ID NO: 2), miR-17 (5′ […] 3′; SEQ ID NO: 3) and quantified by phosphoimaging.

B1: BDNF: brain-derived neurotrophic factor, a neurotrophin used to stimulate hippocampal neurons (protein, UniProt P23560 19-247, looked up)
Neurotrophic factor BDNF …: APMKEANIRGQGGLAYPGVRTHGTLESVNGPKAGSRGLTSLADTFEHVIEELLDEDQKVRPNEENNKDADLYTSRVMLSSQVPLEPPLLFLLEEYKNYLDAANMSMRVRRHSDPARRGELSVCDSISEWVTAADKKTAVDMSGGTVTVLEKVPVSKGQLKQYFYETKCNPMGYTKEGCRGIDKRHWNSQCRTTQSYVRALTMDSKKRIGWRFIRIDTSCVCTLTIKRGR
With B1 the Lin28a protein (Lin28a) was “robust and rapid transcription-independent increase in Lin28a”, the phospho-ERK induction (phospho-ERK) was “rapidly induced phospho-ERK” and the “total TRBP protein levels, fold increase” value (TRBP) was 2.61 fold. For the same molecule, the “number of dendritic and somatic P-bodies” value [1] was “rapid and robust increase in the number of both dendritic and somatic P-bodies” and the “pre-Let7 and mature Let-7 miRNA levels” value (Let-7a) was “significant decreases”.
